Laboratory results as given in publication PMC7597377 (Science signaling, 2020).
Like-named read-outs stand apart in the source and are kept apart here.

Experiments:
Assay in all cases: FRET or BRET
[1] = biological target: T1, ERα ligand-binding domain, wild type (ERα-LBD-biotin) (human, biotin)
[2] = biological target: T2, ERα ligand-binding domain Q375E (ERα-LBD-biotin) (human, biotin)
[3] = biological target: T3, ERα ligand-binding domain Q375A (ERα-LBD-biotin) (human, biotin)
[4] = biological target: T4, ERα ligand-binding domain Q375K (ERα-LBD-biotin) (human, biotin)
[5] = biological target: T1, ERα ligand-binding domain, wild type …; remark: listed apart in the source
[6] = biological target: T2, ERα ligand-binding domain Q375E …; remark: listed apart in the source
[7] = biological target: T3, ERα ligand-binding domain Q375A …; remark: listed apart in the source
[8] = biological target: T4, ERα ligand-binding domain Q375K …; remark: listed apart in the source
[9] = biological target: T1, ERα ligand-binding domain, wild type …; remark: listed apart in the source
[10] = biological target: T2, ERα ligand-binding domain Q375E …; remark: listed apart in the source
[11] = biological target: T3, ERα ligand-binding domain Q375A …; remark: listed apart in the source
[12] = biological target: T4, ERα ligand-binding domain Q375K …; remark: listed apart in the source
[13] = biological target: T1, ERα ligand-binding domain, wild type …; remark: listed apart in the source
[14] = biological target: T2, ERα ligand-binding domain Q375E …; remark: listed apart in the source
[15] = biological target: T3, ERα ligand-binding domain Q375A …; remark: listed apart in the source
[16] = biological target: T4, ERα ligand-binding domain Q375K …; remark: listed apart in the source
[17] = biological target: T1, ERα ligand-binding domain, wild type …; remark: listed apart in the source
[18] = biological target: T2, ERα ligand-binding domain Q375E …; remark: listed apart in the source
[19] = biological target: T3, ERα ligand-binding domain Q375A …; remark: listed apart in the source
[20] = biological target: T4, ERα ligand-binding domain Q375K …; remark: listed apart in the source
[21] = biological target: T1, ERα ligand-binding domain, wild type …; remark: listed apart in the source
[22] = biological target: T2, ERα ligand-binding domain Q375E …; remark: listed apart in the source
[23] = biological target: T3, ERα ligand-binding domain Q375A …; remark: listed apart in the source
[24] = biological target: T4, ERα ligand-binding domain Q375K …; remark: listed apart in the source

B1: SRC1 NR interaction domain (ca. 200 amino acids), FRET acceptor-labeled (domain or fragment)
chain: PSRLNIQPAKAESKDNKEIASILNEMIQSDNSSSDGKPLDSGLLHNNDRLSDGDSKYSQTSHKLVQLLTTTAEQQLRHADIDTSCKDVLSCTGTSNSASANSSGGSCPSSHSSLTERHKILHRLLQEGSPSDITTLSVEPDKKDSASTSVSVTGQVQGNSSIKLELDASKKKESKDHQLLRYLLDKDEKDLRSTPNLSLDDVKVKVEKKEQ
modifications: FRET acceptor label (not named)
fold increase in SRC1 binding with ligand vs E2 (Kd E2/Kd compound) [1]: 0.3 fold
fold reduction in SRC1 binding vs WT ER (Kd mutant/Kd WT) [2]: 4.2 fold
fold reduction in SRC1 binding vs WT ER (Kd mutant/Kd WT) [3]: 5.5 fold
fold increase in SRC1 binding with ligand vs E2 (Kd E2/Kd compound) [4]: 0.16 fold
fold reduction in SRC1 binding vs WT ER (Kd mutant/Kd WT) [4]: 0.62 fold
Kd [5]: 6.8 nM
fold reduction in SRC1 binding vs WT ER (Kd mutant/Kd WT) [6]: 2.8 fold
fold reduction in SRC1 binding vs WT ER (Kd mutant/Kd WT) [7]: 8.8 fold
Kd [8]: 2.2 nM
Kd [9]: 3.4 nM
fold reduction in SRC1 binding vs WT ER (Kd mutant/Kd WT) [10]: 11 fold
fold reduction in SRC1 binding vs WT ER (Kd mutant/Kd WT) [11]: 17 fold
Kd [12]: 1.7 nM
Kd [13]: 3 nM
fold reduction in SRC1 binding vs WT ER (Kd mutant/Kd WT) [14]: 8.7 fold
fold reduction in SRC1 binding vs WT ER (Kd mutant/Kd WT) [15]: 16 fold
Kd [16]: 1.6 nM
Kd [17]: 3.5 nM
fold reduction in SRC1 binding vs WT ER (Kd mutant/Kd WT) [18]: 7.4 fold
fold reduction in SRC1 binding vs WT ER (Kd mutant/Kd WT) [19]: 21 fold
Kd [20]: 1.5 nM
Kd [21]: 6.4 nM
fold reduction in SRC1 binding vs WT ER (Kd mutant/Kd WT) [22]: 3.4 fold
fold reduction in SRC1 binding vs WT ER (Kd mutant/Kd WT) [23]: 8 fold
Kd [24]: 2.1 nM
